# ± gives the standard deviation of the averaged measurements.
# Tested on: Saccharomyces cerevisiae
# Assay: protein stability index of tFT-peptide fusion (C-terminal peptide) (PSI (0-1 scale)); higher = more stable (slower turnover)
# Settings: genetic background: wild type; temperature: 30 C
# 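Further: PSI is a weighted mean of sequencing reads over stability bins, variants kept only with over 10 reads, mCherry proximal and sfGFP distal, peptide attached via GGGS linker.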
row,Sequence,protein stability index
1,QKTYHATQTRRR,0.6839 ± 0.00099
2,LERKRKYSPHDQ,0.677 ± 0.025
3,RIPSKSHAWVLV,0.483 ± 0.058
4,FPRRPHVESHIR,0.7359 ± 0.0042
5,VKGCKCGRIASY,0.669 ± 0.063
6,GGAPAPPSRRPW,0.696 ± 0.032
7,TRSNEERKGKKS,0.731 ± 0.14
8,PLFLLLPALSIP,0.595 ± 0.029
9,GCLFLCPLSPLI,0.685 ± 0.026
10,RQDLLILIKQKG,0.573 ± 0.0072
11,FSHLYCSLVTTD,0.681 ± 0.067
12,IYSGIYCVGAKH,0.666 ± 0.03
13,NPHRRPPRAPWP,0.689 ± 0.039
14,GDDGGSGGCVER,0.6606 ± 0.0051
15,RSRRDTDFGLLI,0.717 ± 0.11
16,VALNCWGYQWMG,0.689 ± 0.04
17,FLFASYFLENQR,0.766 ± 0.13
18,VTGGGVGHWGWW,0.761 ± 0.052
19,GPPPPPPFPPLP,0.708 ± 0.0076
20,PPPLASLSPASP,0.624 ± 0.05
21,SFLVSALASSLA,0.652 ± 0.019
22,WWLARNPLLSRL,0.779 ± 0.026
23,KLREYGGLPISC,0.677 ± 0.0087
24,IQLEFEDMERGK,0.704 ± 0.11
25,KCLDSARSSVLP,0.651 ± 0.043
26,LVCLWQGSSVLI,0.671 ± 0.023

row,Sequence,protein stability index
1,TPPPPPPFPLPP,0.654 ± 0.031
2,DGWVAVGRALGG,0.704 ± 0.028
3,PRGLGPPGWGRR,0.697 ± 0.022
4,RTSLGFSPLIHQ,0.6818 ± 0.0057
5,GCGHVFEVNYEC,0.6206 ± 0.0053
6,LSYRYPLYPILL,0.647 ± 0.018
7,RAIRWFGGRLVG,0.7228 ± 0.0049
8,SFRQSRLKRRGY,0.672 ± 0.15
9,GMGTWSSNRREC,0.872 ± 0.18
10,PKHQPSLLPNHH,0.615 ± 0.026
11,YSPVPPPTRPPL,0.7069 ± 0.0017
12,CHALPPLLPDPL,0.715 ± 0.028
13,LSNGVCSVSFLL,0.672 ± 0.024
14,AGAGRGVVLGWW,0.684 ± 0.017
15,SFNHAKPPLHPA,0.683 ± 0.03
16,PISPPLPRPSPR,0.696 ± 0.012
17,SPPPGLSVILLH,0.6 ± 0.054
18,PPRRPSFAPPHL,0.704 ± 0.014
19,TSSHLLFISSMI,0.638 ± 0.034
20,LEKKRRKNKKEG,0.787 ± 0.14
21,KGRRQPSSESVM,0.711 ± 0.014
22,PCLQQCLLIFLP,0.566 ± 0.015
23,VFACVHPLASLT,0.681 ± 0.048
24,YGSSFRLVFSVT,0.583 ± 0.0074
25,KCVQESIIKMMI,0.763 ± 0.15
26,PRSPTPPPSYSP,0.715 ± 0.11

row,Sequence,protein stability index
1,LRVGGKRREVMG,0.709 ± 0.055
2,LPGFPPSLLPRL,0.777 ± 0.059
3,GGLLSTVVVRVL,0.524 ± 0.022
4,SRNRYSSPPVFI,0.644 ± 0.039
5,LIAGLNLASYGL,0.643 ± 0.1
6,QPRPSISGLSPT,0.642 ± 0.02
7,GGLRGERAGTDG,0.637 ± 0.02
8,GAGNVGSGCGGG,0.631 ± 0.035
9,EVDKKYRNRKRK,0.744 ± 0.019
10,KKEKGKKEKEKR,0.668 ± 0.056
11,HPSLSDLIVLCR,0.51 ± 0.01
12,PSVPPRVCSFSI,0.735 ± 0.08
13,KNKKKKKRRTRK,0.732 ± 0.067
14,LPYSPPSLTLPR,0.666 ± 0.086
15,HGLVLLCINDIV,0.6312 ± 0.001
16,KNVKETERKVTS,0.565 ± 0.023
17,GGRTFHPLWGTT,0.735 ± 0.029
18,VEFGAPGFVEEW,0.734 ± 0.021
19,TRDLWWNVRVRA,0.543 ± 0.015
20,VPEMFSSGIKGG,0.653 ± 0.072
21,GIGSSKESGGLW,0.737 ± 0.05
22,SPKGHGEGGGSK,0.6779 ± 0.00078
23,AGRAPRGSWECS,0.719 ± 0.18
24,GRESGNPGEPTC,0.678 ± 0.012
25,ALGVRVSVLGVL,0.642 ± 0.0075
26,DSILYKKYKQLG,0.559 ± 0.024

row,Sequence,protein stability index
1,GVAWGAGVGMMW,0.732 ± 0.025
2,VCGREVKCGEGY,0.691 ± 0.027
3,RPNTKKHKIGER,0.719 ± 0.03
4,VGVVVGLVRLLG,0.537 ± 0.039
5,CAASLSHKSAPY,0.768 ± 0.1
6,NSWGRRAGMRGG,0.731 ± 0.1
7,PPSLPPSPPLPP,0.694 ± 0.011
8,RSKHNEDRVVYI,0.709 ± 0.093
9,ATSRGFLQNLMA,0.55737 ± 0.00018
10,VAIRLLCSPLGK,0.64 ± 0.029
11,GSVQHRRRDRCD,0.676 ± 0.038
12,PHPAPPPNPLVP,0.739 ± 0.017
13,SWMDRGGAYSGI,0.731 ± 0.11
14,LPPAVIVCVLPS,0.586 ± 0.0097
15,RPPPPTAPPPSR,0.719 ± 0.043
16,DPPPHPPPASPT,0.7 ± 0.1
17,FSLFGVGQITFL,0.683 ± 0.056
18,ADAFDRGRISVV,0.792 ± 0.11
19,SSVVCGPGVLGV,0.729 ± 0.077
20,RACKKGTKRIRI,0.613 ± 0.06
21,RSGQEKEKWEER,0.701 ± 0.022
22,TGRAPGSDVLAS,0.7139 ± 0.0029
23,LPLYPFGLLLPL,0.686 ± 0.043

# From the supplement of paper PMC10724198
